The record followed here is PMC7253180, “A CLC-ec1 mutant reveals global conformational change and suggests a unifying mechanism for the CLC Cl^–/H^+ transport cycle” (eLife, 2020).

Numbering of substitutions follows the chain as printed. Numbers in names are those of the source.

Series [1] deals with the molecule itself. The series can be described thus: crystal structure; lipidic cubic phase (monoolein with 10% cholesterol), without any antibody Fab fragment; 100 mM Tris pH 8.5, 100 mM sodium malonate, 30% PEG 400, 2.5% MPD; 16°C.
Series [2] deals with the molecule itself. The series can be described thus: DEER spectroscopy; one MTSSL spin label per subunit, inter-subunit distance distributions; pH 7.5 and pH 4.5; 83 K, Q-band; four-pulse protocol (five-pulse for position 374).

B1: CLC-ec1 QQQ mutant (E148Q/E203Q/E113Q) (natural protein, E. coli)
chain: MKTDTPSLETPQAARLRRRQLIRQLLERDKTPLAILFMAAVVGTLVGLAAVAFDKGVAWLQNQRMGALVHTADNYPLLLTVAFLCSAVLAMFGYFLVRKYAPEAGGSGIPEIQGALEDQRPVRWWRVLPVKFFGGLGTLGGGMVLGRQGPTVQIGGNIGRMVLDIFRLKGDEARHTLLATGAAAGLAAAFNAPLAGILFIIEQMRPQFRYTLISIKAVFIGVIMSTIMYRIFNHEVALIDVGKLSDAPLNTLWLYLILGIIFGIFGPIFNKWVLGMQDLLHRVHGGNITKWVLMGGAIGGLCGLLGFVAPATSGGGFNLIPIATAGNFSMGMLVFIFVARVITTLLCFSSGAPGGIFAPMLALGTVLGTAFGMVAVELFPQYHLEAGTFAIAGMGALLAASIRAPLTGIILVLEMTDNYQLILPMIITGLGATLLAQFTGGKPLYSAILARTLAKQEAEQLARSKAAS
notes: CLC-ec1, prokaryotic (E. coli) CLC Cl-/H+ exchange transporter, from plasmid pASK-CLC-ec1; Helix A (N-terminal) has no density in the model; also called ClC-ec1 triple mutant (E113Q, E148Q, E203Q)
Turning to B1, the binding result in series [1] is “binds”.

B2: D417C/QQQ CLC-ec1 (cysteine-less background), spin-labeled (natural protein, E. coli)
chain: B1 chain with C85A, C302A, C347S, D417C
modifications: MTSSL spin label on the substituted cysteine at 417
notes: CLC-ec1, prokaryotic (E. coli) CLC Cl-/H+ exchange transporter, from plasmid pASK-CLC-ec1; Helix P; source: purified under reducing conditions, then labeled with MTSSL
Turning to B2, the binding result in series [2] is “binds”.

B3: WT CLC-ec1 (cysteine-less background) D417C, spin-labeled (natural protein, E. coli)
chain: MKTDTPSLETPQAARLRRRQLIRQLLERDKTPLAILFMAAVVGTLVGLAAVAFDKGVAWLQNQRMGALVHTADNYPLLLTVAFLASAVLAMFGYFLVRKYAPEAGGSGIPEIEGALEDQRPVRWWRVLPVKFFGGLGTLGGGMVLGREGPTVQIGGNIGRMVLDIFRLKGDEARHTLLATGAAAGLAAAFNAPLAGILFIIEEMRPQFRYTLISIKAVFIGVIMSTIMYRIFNHEVALIDVGKLSDAPLNTLWLYLILGIIFGIFGPIFNKWVLGMQDLLHRVHGGNITKWVLMGGAIGGLAGLLGFVAPATSGGGFNLIPIATAGNFSMGMLVFIFVARVITTLLSFSSGAPGGIFAPMLALGTVLGTAFGMVAVELFPQYHLEAGTFAIAGMGALLAASIRAPLTGIILVLEMTCNYQLILPMIITGLGATLLAQFTGGKPLYSAILARTLAKQEAEQLARSK
modifications: MTSSL spin label on the substituted cysteine at 417
notes: as for B2
On to B3, for which the binding result in series [2] is recorded as “binds”.
